Among the data in PMC12719470 (2025) are Kd values, retold here.

The experiment addresses T1, TNFR2-His protein (UniProt P20333 23-461).
T1 chain: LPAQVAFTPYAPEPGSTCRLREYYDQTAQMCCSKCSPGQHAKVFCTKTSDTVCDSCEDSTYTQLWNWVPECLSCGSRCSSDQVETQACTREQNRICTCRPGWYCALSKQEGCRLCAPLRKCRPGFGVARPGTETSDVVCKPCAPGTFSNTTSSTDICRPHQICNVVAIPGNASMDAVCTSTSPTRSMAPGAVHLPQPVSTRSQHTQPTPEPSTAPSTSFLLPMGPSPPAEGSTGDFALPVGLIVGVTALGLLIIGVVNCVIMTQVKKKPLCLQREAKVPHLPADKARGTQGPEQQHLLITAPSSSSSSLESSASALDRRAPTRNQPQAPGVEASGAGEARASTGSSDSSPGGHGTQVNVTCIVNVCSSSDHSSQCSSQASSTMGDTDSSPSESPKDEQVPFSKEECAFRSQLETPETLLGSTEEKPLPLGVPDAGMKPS
Briefly: BLI. A general note: BLI is a label-free optical method that tracks binding on a fibre tip over time.

B1: Nanobody-161 IgG1 Y105G (Fc fusion)
chain: EVQLVESGGGLVQPGGSLRLSCAASGSIRFINDMGWYRQAPGKGLELVAAIGRGGGSTNYADSVKGRFTISRDNAKNTLYLQMNSLRAEDTAVYYCHAEISQLGGAFRDYWGQGTLVTVSS
Take B1: the equilibrium dissociation constant (Kd) was found to be 214 µM.

As a reminder, the Kd is a measure of binding affinity in units of concentration. Lower therefore signals higher affinity.
